According to patent publication US5939284A, “Protein phosphatase 1 binding protein, R5” (Smithkline Beecham Corporation, priority 1996, dated 1999):

Columns and labels:
[1] = target: Human PP1g (catalytic subunit of protein phosphatase 1), bacterially expressed (human) (UniProt P36873)
[2] = target: PP1g (catalytic subunit of protein phosphatase 1); test: Protein phosphatase assay: phosphorylase phosphatase activity of PP1; assay type: biochemical, human; conditions: freshly prepared preparation; 32P-labelled phosphorylase as substrate; preincubated 15 minutes at 30° C.; FIG. 3; read-out: IC50 for inhibition of the phosphorylase phosphatase activity of PP1
Procedure: Protein phosphatase assays were performed in the absence of divalent cations as described in Cohen et al, (1988), cited above. The catalytic subunit PP1g, described above in Example 2, was diluted in assay buffer to 1.5 U/ml (1.4 nM). Rabbit skeletal muscle glycogen phosphorylase was ^32 P-labelled by phosphorylase kinase to a stoichiometry of 1 mol phosphate per mol subunit as in Cohen et al, Meth. Enzymol. 159:390-408 (1988) and was 10 mM in the assays.
Assays were initiated with 0.01 ml ^32 P-labelled phosphorylase. One unit of activity is the amount of enzyme which catalyses the release of 1 mmol of [^32 P]phosphate per minute.

phosphorylase a = test: Blot overlay with 32P labelled phosphorylase a; assay type: binding; conditions: proteins electrophoresed, transferred to nitrocellulose, probed with 32P labelled phosphorylase a; blot not shown

Molecule	IC50, inhibition of phosphorylase phosphatase activity of PP1 [1]	IC50 [2]	Binding of phosphorylase a (phosphorylase a)
GST-PPP1R5 fusion protein	100 nM	–	–
GST-GL fusion protein	100 nM	–	–
GST-GL: GST fusion protein of the rat liver glycogen binding subunit (GL) of protein phosphatase 1, bacterially expressed (protein) MAVDIEYSYSSMAPSLRRERFTFKISPKLNKPLRPCIQLGSKDEAGRMVAPTVQEKKVKKRVSFADNQGLALTMVKVFSEFDDPLDIPFNITELLDNIVSLTTAESESFVLDFPQPSADYLDFRNRLQTNHVCLENCVLKEKAIAGTVKVQNLAFEKVVKIRMTFDTWKSFTDFPCQYVKDTYAGSDRDTFSFDISLPEKIQSYERMEFAVCYECNGQSYWDSNKGKNYRITRAELRSTQGMTEPYNGPDFGISFDQFGSPRCSFGLFPEWPSYLGYEKLGPYY	–	~100 nM	bound
